The target in assay [1] is CFP-tagged CD44 (human full length CD44s cDNA fused in frame into pECFP, expressed in MDA-MB231 cells) (human) (UniProt P16070). In words: FRET by acceptor photobleaching, confocal microscopy, MDA-MB231 cells coexpressing CFP-CD44 and YFP-OPN.
Assay [2] has the same target. In words: FRET by acceptor photobleaching, CFP-CD44/YFP-OPN in MDA-MB231 cells, in the presence of blocking antibody to αvβ3 integrin.
For assay [3] the target is unchanged. In words: FRET by acceptor photobleaching, CFP-CD44/YFP-OPN in MDA-MB231 cells, in the presence of mutated OPN-R3 RNA aptamer (control).
For assay [4], the target named is CFP from CFP-empty plasmid (pECFP). Kind of assay: FRET by acceptor photobleaching; negative control, cotransfection of empty CFP and YFP plasmids in MDA-MB231 cells.

FRET efficiency data for two substances are collected here from patent publication US20110190386A1.

With “YFP-tagged OPN (human OPN cDNA fused in frame into pEYFP, expressed in MDA-MB231 cells) (from UniProt P10451 17-314) (ligand)”, the FRET efficiency was determined as 24.2% in assay [1], 19.6% in assay [2] and 23.1% in assay [3].
With YFP from YFP-empty plasmid (pEYFP), the FRET efficiency in assay [4] turned out to be 0.23%.
